The target of this test is Human FcγRIIIa (human) (UniProt P08637). The test can be described thus: SPR (Biacore), FcγRIIIa immobilized; 1:1 with mass transfer fit.

mouse IgG2a (antibody) returned a Ka of 2.1e+08 M⁻¹ and a Kd of 4.7 nM.
G-011 (from UniProt P01854 104-210) gave a Ka of 1.8e+07 M⁻¹ and a dissociation constant Kd of 5500 nM.

The values are drawn from US20100239633A1.
